Target: T1, C. elegans SMG8c (SMG8 residues 1-423) (C. elegans, UniProt O62301 1-423)
T1 construct: SMG8, C. elegans, full length 873 residues; core fragment residues 1-423 (G-like domain and stalk); Selenomethionine-substituted protein (about 60% incorporation) was used for phasing; native crystals were soaked with GDP; SMG8 was insoluble when expressed in isolation; also called C.e; SMG8 1-423; CeSMG8
T1 sequence (looked up): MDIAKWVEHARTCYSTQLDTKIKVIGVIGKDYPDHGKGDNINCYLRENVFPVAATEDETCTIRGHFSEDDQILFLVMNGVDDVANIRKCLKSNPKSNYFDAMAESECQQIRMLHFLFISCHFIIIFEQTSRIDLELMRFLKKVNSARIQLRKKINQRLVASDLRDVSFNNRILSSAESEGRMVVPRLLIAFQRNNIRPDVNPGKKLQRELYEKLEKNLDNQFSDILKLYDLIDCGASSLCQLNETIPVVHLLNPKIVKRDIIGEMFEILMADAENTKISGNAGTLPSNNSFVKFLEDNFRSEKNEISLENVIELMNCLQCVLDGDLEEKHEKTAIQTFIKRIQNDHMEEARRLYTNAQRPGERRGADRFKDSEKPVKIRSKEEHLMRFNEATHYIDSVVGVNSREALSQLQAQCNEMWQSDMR
Assay: crystal structure; coexpressed and co-purified SMG8c-SMG9c core complex; vapor diffusion, 10% PEG3350, 0.1M Tris pH 8.5, 0.11 mM YCl3; SeMet crystals (2.5 Å) and native crystals soaked with 10 mM GDP (2.65 Å); three copies of the complex in the asymmetric unit
Details: both partners purified

binding result: binds
B1: C. elegans SMG9c (SMG9 residues 59-375) (domain or fragment, UniProt Q9XWJ1 59-375, looked up)
chain: MKESVRFLTDFGEISDAISDLLTSSPNFNVISAIGPQGAGKSTLLSMLAGNNSRQMYREYVFRPVSREANEQSRHQTIQIDIYIVNHQIFLDCQPMYSFSIMEGLPKVRGGRFDDSTAMSDTLRLTAFLLYVSHTVLVVSETHYDKVIIDTLRVAEQIRPYLAIFRPKLAIDRKTNLVFIKTKASSIDLAPTVIREREELLRLSFQDSRWLKVSQEPFKTLIVLEEIRVRREHLFEEGDEPDEAASLNEFDEQIAELREELQKNREDFTVETAAMDEKKWLDMCREVIRDKTLHKTLKEYQRAMTDGVRTHFDNGFH
notes: SMG9, C. elegans, full length 385 residues; core fragment residues 59-375 (G domain); Selenomethionine-substituted protein (about 60% incorporation) was used for phasing; native crystals were soaked with GDP; also called C.e; SMG9 59-375; CeSMG9c

Reference: article PMC5473137, “Structure of a SMG8–SMG9 complex identifies a G-domain heterodimer in the NMD effector proteins” (RNA, 2017)
